The record followed here is article PMC10214663.

The assay addresses FGF4-Fc (human) (UniProt P08620). Description: BLI; Octet RED K2; FGF4-Fc (25 µg/mL) on Protein-A sensors, galectins at 0.2 µM to 6 µM; heterogeneous ligand (2:1) model; steady-state analysis for galectin-1. Background: In BLI a coated tip is dipped into the sample, and binding shifts an interference pattern.

FGF4-Fc (human), sequence (P08620 31-206): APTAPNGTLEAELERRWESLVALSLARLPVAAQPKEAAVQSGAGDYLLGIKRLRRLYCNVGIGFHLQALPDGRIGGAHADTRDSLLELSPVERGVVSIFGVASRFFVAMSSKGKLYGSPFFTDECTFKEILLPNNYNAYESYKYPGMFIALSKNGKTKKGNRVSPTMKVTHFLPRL

Consider galectin-8 (natural protein), for which the KD1 came out at 724 nM, the KD2 was 140 nM, the KOff1 is 0.0755 s⁻¹ and the KOff2 is 0.000115 s⁻¹. For the same substance, the Kon1 was 104000 M⁻¹ s⁻¹ and the Kon2 was 823 M⁻¹ s⁻¹.
